What all share (test): fluorescence polarisation
In general terms: Fluorescence polarisation rises when a labelled molecule tumbles more slowly, as on binding a larger partner.

Experiment [1] has as its target Mcl-1 (c-myc-tagged, without the N-terminal domain and the C-terminal trans-membrane region) (human).
The target in experiment [2] is Bfl-1 (c-myc-tagged, without the C-terminal trans-membrane region) (human).
For experiment [3], the target named is Bcl-xL (c-myc-tagged, without the C-terminal trans-membrane region) (human).
The target of experiment [4] is Bcl-2 (c-myc-tagged, without the C-terminal trans-membrane region) (human).
Experiment [5] addresses Bcl-w (c-myc-tagged, without the C-terminal trans-membrane region) (human).

Results on eleven substances are retold here after paper PMC4168798.

Sequence of Bcl-w (c-myc-tagged, without the C-terminal trans-membrane region) (human) (Q92843 1-164): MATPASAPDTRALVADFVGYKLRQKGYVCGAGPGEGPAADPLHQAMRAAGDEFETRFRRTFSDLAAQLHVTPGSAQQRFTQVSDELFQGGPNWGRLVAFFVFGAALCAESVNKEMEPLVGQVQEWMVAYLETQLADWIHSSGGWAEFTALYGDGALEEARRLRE

Broadly, the Kd is a measure of binding affinity in units of concentration. High values mean weaker binding, low ones tighter binding. With “Bim 23-mer, N-terminal fluorescein (peptide)”, the results for the Kd in experiment [1], in experiment [2] and in experiment [3] were < 1 nM, < 1 nM and 2.6 nM, respectively.

As to “Bim_A2eT, N-terminal fluorescein (peptide)”, the Kd in experiment [1] is < 1 nM; in experiment [2] it was 31 nM; in experiment [3], 17 nM; in experiment [4], 43 nM.

In experiment [5], “Bim_A2eT, N-terminal fluorescein (peptide; other documents disagree on this pair)” returned a Kd of 39 nM.

For the substance “Bim_A2eT_E2gG, N-terminal fluorescein (peptide)”, the Kd in experiment [1] came out at 1.6 nM; in experiment [3], 37 nM; in experiment [4], 150 nM.

As for “Bim_A2eT_E2gG, N-terminal fluorescein (peptide; other documents disagree on this pair)”, in experiment [5], the Kd worked out at 94 nM.

For the substance “Bim_A2eT_F4aI, N-terminal fluorescein (peptide)”, the Kd is < 1 nM in experiment [1], 7.9 nM in experiment [2], 110 nM in experiment [3] and 150 nM in experiment [4].

Consider “Bim_A2eT_F4aI, N-terminal fluorescein (peptide; other documents disagree on this pair)”, for which the Kd in experiment [5] came out at 16 nM.

“Bim_A2eT_I2dM, N-terminal fluorescein (peptide)”: the Kd is < 1 nM in experiment [1], 150 nM in experiment [2], 83 nM in experiment [3] and 210 nM in experiment [4].

In the case of “Bim_A2eT_I2dM, N-terminal fluorescein (peptide; other documents disagree on this pair)”, in experiment [5], the Kd amounted to 260 nM.

Turning to “Bim_A2eT_I3dL, N-terminal fluorescein (peptide)”, the Kd in experiment [1] is < 1 nM; in experiment [2] it was 120 nM; in experiment [3] it was 7.6 nM; in experiment [4], 37 nM.

Regarding “Bim_A2eT_I3dL, N-terminal fluorescein (peptide; other documents disagree on this pair)”, the Kd in experiment [5] was found to be 12 nM.
